In US20250320281A1:

How the values were obtained:
Test in all cases: cell-based or functional assay
[1] = target: HIV-1 Env of isolate MG RM-D-020 (HIV-1)
[2] = target: HIV-1 Env of isolate MGRM-F1-010 (HIV-1)
[3] = target: HIV-1 Env of pseudovirus MGRM-AE-007 (subtype AE) (HIV-1)
[4] = target: HIV-1 Env of isolate MGRM-F1-014 (HIV-1)
[5] = target: HIV-1 Env of isolate MG RM-D-018 (HIV-1)
[6] = target: HIV-1 Env of isolate MG RM-D-016 (HIV-1)
[7] = target: HIV-1 Env of isolate MGRM-F1-017 (HIV-1)
[8] = target: HIV-1 Env of isolate MGRM-F1-022 (HIV-1)
[9] = target: HIV-1 Env of isolate MGRM-F1-015 (HIV-1)
[10] = target: HIV-1 Env of isolate MGRM-F1-020 (HIV-1)
[11] = target: HIV-1 Env of isolate MG RM-D-012 (HIV-1)
[12] = target: HIV-1 Env of isolate MG RM-D-019 (HIV-1)
[13] = target: HIV-1 Env of isolate MG RM-D-021 (HIV-1)
[14] = target: HIV-1 Env of pseudovirus MGRM-AG-005 (subtype AG) (HIV-1)
[15] = target: HIV-1 Env of isolate MGRM-F1-008 (HIV-1)
[16] = target: HIV-1 Env of isolate MG RM-D-013 (HIV-1)
[17] = target: HIV-1 Env of isolate MGRM-F1-016 (HIV-1)
[18] = target: HIV-1 Env of pseudovirus MGRM-AE-008 (subtype AE) (HIV-1)
[19] = target: HIV-1 Env of pseudovirus MGRM-AG-008 (subtype AG) (HIV-1)
[20] = target: HIV-1 Env of isolate MGRM-F1-023 (HIV-1)
[21] = target: HIV-1 Env of isolate MGRM-F1-018 (HIV-1)
[22] = target: HIV-1 Env of isolate MGRM-F1-004 (HIV-1)
[23] = target: HIV-1 Env of pseudovirus MGRM-AG-013 (subtype AG) (HIV-1)
[24] = target: HIV-1 Env of isolate MG RM-D-011 (HIV-1)
[25] = target: HIV-1 Env of pseudovirus MGRM-AG-001 (subtype AG) (HIV-1)
[26] = target: HIV-1 Env of isolate MGRM-F1-012 (HIV-1)
[27] = target: HIV-1 Env of isolate MG RM-D-014 (HIV-1)
[28] = target: HIV-1 Env of pseudovirus MGRM-AG-011 (subtype AG) (HIV-1)
[29] = target: HIV-1 Env of pseudovirus MGRM-AG-012 (subtype AG) (HIV-1)
[30] = target: HIV-1 Env of isolate MGRM-F1-021 (HIV-1)
[31] = target: HIV-1 Env of pseudovirus MGRM-AG-003 (subtype AG) (HIV-1)
[32] = target: HIV-1 Env of pseudovirus MGRM-AG-002 (subtype AG) (HIV-1)
[33] = target: HIV-1 Env of isolate MGRM-F1-013 (HIV-1)
[34] = target: HIV-1 Env of pseudovirus MGRM-AG-006 (subtype AG) (HIV-1)
[35] = target: HIV-1 Env of isolate MG RM-D-026 (HIV-1)
[36] = target: HIV-1 Env of isolate MG RM-D-024 (HIV-1)
[37] = target: HIV-1 Env of isolate MG RM-D-029 (HIV-1)
[38] = target: HIV-1 Env of isolate MG RM-D-022 (HIV-1)
[39] = target: HIV-1 Env of isolate MGRM-F1-006 (HIV-1)
[40] = target: HIV-1 Env of isolate MG RM-D-028 (HIV-1)
[41] = target: HIV-1 Env of pseudovirus MGRM-AG-009 (subtype AG) (HIV-1)
[42] = target: HIV-1 Env of isolate MGRM-C-027 (HIV-1)
[43] = target: HIV-1 Env of isolate MGRM-C-022 (HIV-1)
[44] = target: HIV-1 Env of isolate MGRM-C-024 (HIV-1)
[45] = target: HIV-1 Env of isolate MGRM-C-017 (HIV-1)
[46] = target: HIV-1 Env of isolate MGRM-C-020 (HIV-1)
[47] = target: HIV-1 Env of isolate MGRM-C-014 (HIV-1)
[48] = target: HIV-1 Env of isolate MGRM-C-015 (HIV-1)
[49] = target: HIV-1 Env of isolate MGRM-C-028 (HIV-1)
[50] = target: HIV-1 Env of isolate MGRM-C-026 (HIV-1)
[51] = target: HIV-1 Env of isolate MGRM-C-025 (HIV-1)
[52] = target: HIV-1 Env of isolate MGRM-C-019 (HIV-1)
[53] = target: HIV-1 Env of isolate MGRM-C-023 (HIV-1)
[54] = target: HIV-1 Env of isolate JR-CSF (pseudovirus) (HIV-1) (UniProt P20871)
[55] = target: HIV-1 Env of isolate 92TH021 (pseudovirus) (HIV-1)
[56] = target: HIV-1 Env of isolate MGRM-C-026 (pseudovirus) (HIV-1)

PGT-143 (4980_N08) (antibody), sequence (VH): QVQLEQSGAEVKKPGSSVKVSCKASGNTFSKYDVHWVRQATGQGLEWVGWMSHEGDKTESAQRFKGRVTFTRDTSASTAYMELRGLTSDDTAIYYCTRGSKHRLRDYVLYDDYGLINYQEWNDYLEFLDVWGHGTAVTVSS
PGT-143 (4980_N08) (antibody), sequence (VL): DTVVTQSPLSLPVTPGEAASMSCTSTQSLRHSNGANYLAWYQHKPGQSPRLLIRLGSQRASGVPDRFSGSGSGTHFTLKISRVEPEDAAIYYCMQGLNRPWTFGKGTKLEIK
PGT-141 (antibody), sequence (VH): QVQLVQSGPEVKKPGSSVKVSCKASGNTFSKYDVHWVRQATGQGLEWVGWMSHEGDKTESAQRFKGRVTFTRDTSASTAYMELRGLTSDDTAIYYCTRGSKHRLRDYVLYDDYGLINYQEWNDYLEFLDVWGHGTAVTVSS
PGT-141 (antibody), sequence (VL): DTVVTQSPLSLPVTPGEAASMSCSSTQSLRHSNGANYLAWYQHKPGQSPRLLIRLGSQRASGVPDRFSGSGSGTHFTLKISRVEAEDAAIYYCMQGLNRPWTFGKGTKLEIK
PGT-144 (antibody), sequence (VH): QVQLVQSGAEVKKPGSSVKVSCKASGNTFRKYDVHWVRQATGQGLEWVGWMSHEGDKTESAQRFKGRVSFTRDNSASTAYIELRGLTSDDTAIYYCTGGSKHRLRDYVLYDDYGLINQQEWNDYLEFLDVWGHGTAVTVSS
PGT-144 (antibody), sequence (VL): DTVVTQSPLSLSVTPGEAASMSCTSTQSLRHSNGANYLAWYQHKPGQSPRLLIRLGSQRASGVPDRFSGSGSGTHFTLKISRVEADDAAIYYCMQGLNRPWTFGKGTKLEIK
PGT-142 (antibody), sequence (VH): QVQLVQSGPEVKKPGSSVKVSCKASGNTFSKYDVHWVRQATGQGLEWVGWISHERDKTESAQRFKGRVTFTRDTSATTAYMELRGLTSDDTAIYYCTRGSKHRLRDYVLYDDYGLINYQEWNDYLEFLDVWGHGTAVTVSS
PGT-145 (antibody), sequence (VH): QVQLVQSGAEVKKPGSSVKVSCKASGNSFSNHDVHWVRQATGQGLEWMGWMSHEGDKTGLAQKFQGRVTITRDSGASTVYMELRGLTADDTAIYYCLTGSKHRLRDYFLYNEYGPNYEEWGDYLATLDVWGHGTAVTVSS
PGT-145 (antibody), sequence (VL): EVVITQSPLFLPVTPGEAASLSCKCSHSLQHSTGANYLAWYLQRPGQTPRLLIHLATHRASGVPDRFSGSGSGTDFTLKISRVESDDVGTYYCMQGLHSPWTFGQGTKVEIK

PGT-142 (4995_E20) (antibody)
IC50 [1]: > 50 µg/mL
IC50 [2]: > 50 µg/mL
IC50, pseudovirus neutralization [3]: 6.7 µg/mL
IC50 [4]: 0.001 µg/mL
IC50 [5]: > 50 µg/mL
IC50 [6]: > 50 µg/mL
IC50 [7]: 23.5 µg/mL
IC50 [8]: 0.04 µg/mL
IC50 [9]: > 50 µg/mL
IC50 [10]: 0.824 µg/mL
IC50 [11]: > 50 µg/mL
IC50 [12]: 0.155 µg/mL
IC50 [13]: > 50 µg/mL
IC50, pseudovirus neutralization [14]: 0.383 µg/mL
IC50 [15]: 0.124 µg/mL
IC50 [16]: 0.221 µg/mL
IC50 [17]: > 50 µg/mL
IC50, pseudovirus neutralization [18]: 0.08 µg/mL
IC50, pseudovirus neutralization [19]: 12.1 µg/mL
IC50 [20]: 0.602 µg/mL
IC50 [21]: 0.404 µg/mL
IC50 [22]: 0.013 µg/mL
IC50, pseudovirus neutralization [23]: 21.7 µg/mL
IC50 [24]: > 50 µg/mL
IC50, pseudovirus neutralization [25]: 12.4 µg/mL
IC50 [26]: > 50 µg/mL
IC50 [27]: 0.005 µg/mL
IC50, pseudovirus neutralization [28]: 0.081 µg/mL
IC50, pseudovirus neutralization [29]: > 50 µg/mL
IC50 [30]: > 50 µg/mL
IC50, pseudovirus neutralization [31]: > 50 µg/mL
IC50, pseudovirus neutralization [32]: 0.044 µg/mL
IC50 [33]: 0.023 µg/mL
IC50, pseudovirus neutralization [34]: > 50 µg/mL
IC50 [35]: 12.5 µg/mL
IC50 [36]: > 50 µg/mL
IC50 [37]: 0.192 µg/mL
IC50 [38]: > 50 µg/mL
IC50 [39]: 12.9 µg/mL
IC50 [40]: > 50 µg/mL
IC50, pseudovirus neutralization [41]: > 50 µg/mL

PGT-143 (antibody)
IC50 (µg/mL), pseudovirus neutralization [42]: 0.598 µg/mL
IC50 (µg/mL), pseudovirus neutralization [43]: 0.103 µg/mL
IC50 (µg/mL), pseudovirus neutralization [44]: 0.05 µg/mL
IC50 (µg/mL), pseudovirus neutralization [45]: 5.17 µg/mL
IC50 (µg/mL), pseudovirus neutralization [46]: 0.797 µg/mL
IC50 (µg/mL), pseudovirus neutralization [47]: 8.81 µg/mL
IC50 (µg/mL), pseudovirus neutralization [48]: 0.085 µg/mL
IC50 (µg/mL), pseudovirus neutralization [49]: 12.4 µg/mL
IC50 (µg/mL), pseudovirus neutralization [50]: > 50 µg/mL
IC50 (µg/mL), pseudovirus neutralization [51]: 0.336 µg/mL
IC50 (µg/mL), pseudovirus neutralization [52]: 0.004 µg/mL
IC50 (µg/mL), pseudovirus neutralization [53]: 0.148 µg/mL

PGT-143 (4980_N08) (antibody)
IC50 [1]: > 50 µg/mL
IC50 [2]: > 50 µg/mL
IC50, pseudovirus neutralization [3]: 13.6 µg/mL
IC50 [4]: 0.001 µg/mL
IC50 [5]: > 50 µg/mL
IC50 [6]: > 50 µg/mL
IC50 [7]: 26.3 µg/mL
IC50 [8]: 0.082 µg/mL
IC50 [9]: > 50 µg/mL
IC50 [10]: 0.98 µg/mL
IC50 [11]: > 50 µg/mL
IC50 [12]: 0.277 µg/mL
IC50 [13]: > 50 µg/mL
IC50, pseudovirus neutralization [14]: 1.11 µg/mL
IC50 [15]: 0.189 µg/mL
IC50 [16]: 0.386 µg/mL
IC50 [17]: > 50 µg/mL
IC50, pseudovirus neutralization [18]: 0.135 µg/mL
IC50, pseudovirus neutralization [19]: 34 µg/mL
IC50 [20]: 0.972 µg/mL
IC50 [21]: 0.701 µg/mL
IC50 [22]: 0.036 µg/mL
IC50, pseudovirus neutralization [23]: > 50 µg/mL
IC50 [24]: > 50 µg/mL
IC50, pseudovirus neutralization [25]: 18.9 µg/mL
IC50 [26]: > 50 µg/mL
IC50 [27]: 0.009 µg/mL
IC50, pseudovirus neutralization [28]: 0.156 µg/mL
IC50, pseudovirus neutralization [29]: > 50 µg/mL
IC50 [30]: > 50 µg/mL
IC50, pseudovirus neutralization [31]: > 50 µg/mL
IC50, pseudovirus neutralization [32]: 0.076 µg/mL
IC50 [33]: 0.013 µg/mL
IC50, pseudovirus neutralization [34]: > 50 µg/mL
IC50 [35]: 44.6 µg/mL
IC50 [36]: > 50 µg/mL
IC50 [37]: 0.2 µg/mL
IC50 [38]: > 50 µg/mL
IC50 [39]: 12.3 µg/mL
IC50 [40]: > 50 µg/mL
IC50, pseudovirus neutralization [41]: > 50 µg/mL

PGT-141 (antibody)
IC50 (µg/mL), pseudovirus neutralization [42]: 3.27 µg/mL
IC50 (µg/mL), pseudovirus neutralization [43]: 0.381 µg/mL
IC50 (µg/mL), pseudovirus neutralization [44]: 0.101 µg/mL
IC50 (µg/mL), pseudovirus neutralization [45]: 4.02 µg/mL
IC50 (µg/mL), pseudovirus neutralization [46]: 1.34 µg/mL
IC50 (µg/mL), pseudovirus neutralization [47]: 11.8 µg/mL
IC50 (µg/mL), pseudovirus neutralization [48]: 0.033 µg/mL
IC50 (µg/mL), pseudovirus neutralization [49]: 13.8 µg/mL
IC50 (µg/mL), pseudovirus neutralization [50]: > 50 µg/mL
IC50 (µg/mL), pseudovirus neutralization [51]: 0.247 µg/mL
IC50 (µg/mL), pseudovirus neutralization [52]: 0.008 µg/mL
IC50 (µg/mL), pseudovirus neutralization [53]: 0.153 µg/mL

PGT-145 (antibody)
IC50 (µg/mL), pseudovirus neutralization [42]: 0.095 µg/mL
IC50 (µg/mL), pseudovirus neutralization [43]: 0.492 µg/mL
IC50 (µg/mL), pseudovirus neutralization [44]: 0.174 µg/mL
IC50 (µg/mL), pseudovirus neutralization [45]: > 50 µg/mL
IC50 (µg/mL), pseudovirus neutralization [46]: 0.712 µg/mL
IC50 (µg/mL), pseudovirus neutralization [47]: 5.82 µg/mL
IC50 (µg/mL), pseudovirus neutralization [48]: 0.12 µg/mL
IC50 (µg/mL), pseudovirus neutralization [49]: 0.099 µg/mL
IC50 (µg/mL), pseudovirus neutralization [50]: > 50 µg/mL
IC50 (µg/mL), pseudovirus neutralization [51]: 0.044 µg/mL
IC50 (µg/mL), pseudovirus neutralization [52]: 0.005 µg/mL
IC50 (µg/mL), pseudovirus neutralization [53]: 0.201 µg/mL

PGT-144 (antibody)
IC50 (µg/mL), pseudovirus neutralization [42]: > 50 µg/mL
IC50 (µg/mL), pseudovirus neutralization [43]: 2.58 µg/mL
IC50 (µg/mL), pseudovirus neutralization [44]: 2.06 µg/mL
IC50 (µg/mL), pseudovirus neutralization [45]: 23 µg/mL
IC50 (µg/mL), pseudovirus neutralization [46]: 1.29 µg/mL
IC50 (µg/mL), pseudovirus neutralization [47]: > 50 µg/mL
IC50 (µg/mL), pseudovirus neutralization [48]: 0.236 µg/mL
IC50 (µg/mL), pseudovirus neutralization [49]: > 50 µg/mL
IC50 (µg/mL), pseudovirus neutralization [50]: > 50 µg/mL
IC50 (µg/mL), pseudovirus neutralization [51]: 17.6 µg/mL
IC50 (µg/mL), pseudovirus neutralization [52]: 0.513 µg/mL
IC50 (µg/mL), pseudovirus neutralization [53]: 0.38 µg/mL

5113_D22 (labelled PGT-132 in Table 26) (antibody)
Primary Neutralization Index (B cell culture supernatant) [54]: 3
Primary Neutralization Index (B cell culture supernatant) [55]: 51
Primary Neutralization Index (B cell culture supernatant) [56]: 6

5117_E22 (labelled PGT-133 in Table 26) (antibody)
Primary Neutralization Index (B cell culture supernatant) [54]: 3.6
Primary Neutralization Index (B cell culture supernatant) [55]: 42.5
Primary Neutralization Index (B cell culture supernatant) [56]: 3.4

PGT-142 (antibody)
IC50 (µg/mL), pseudovirus neutralization [42]: 0.792 µg/mL
IC50 (µg/mL), pseudovirus neutralization [43]: 0.086 µg/mL
IC50 (µg/mL), pseudovirus neutralization [44]: 0.03 µg/mL
IC50 (µg/mL), pseudovirus neutralization [45]: 1.11 µg/mL
IC50 (µg/mL), pseudovirus neutralization [46]: 0.446 µg/mL
IC50 (µg/mL), pseudovirus neutralization [47]: 6.02 µg/mL
IC50 (µg/mL), pseudovirus neutralization [48]: 0.038 µg/mL
IC50 (µg/mL), pseudovirus neutralization [49]: 2.12 µg/mL
IC50 (µg/mL), pseudovirus neutralization [50]: > 50 µg/mL
IC50 (µg/mL), pseudovirus neutralization [51]: 0.183 µg/mL
IC50 (µg/mL), pseudovirus neutralization [52]: 0.003 µg/mL
IC50 (µg/mL), pseudovirus neutralization [53]: 0.087 µg/mL
